From patent publication US20260347399A1, “BRAIN PENETRATING PEPTIDES AND METHODS OF USE” (priority 2022, published 2026)
Ends that are not written are not given here.

Legend:
rat brain = assay: Peptide-phage biodistribution after i.v. injection, rats; type: in vivo; conditions: 1 h
Protocol: For titering-based biodistribution studies, nucleotide sequences coding for peptides of interest were cloned into T7 phage genomic DNA to be expressed on the phage surface as C-terminal fusions to capsid protein. The cloning was performed using complementary oligonucleotides, the phage clones were amplified, and purified as described in (Põšnograjeva, et al., 2022). 5×10^9 pfu of peptide-phage clone was injected i.v. into male Balb/C mice or 5×10^10 pfu of phage was injected into female Sprague-Dawley rats (n=3). 60 min later, the animals were anesthetized and perfused with PBS. The tissues were collected, homogenized, and the amount of phage in tissue lysates was determined by titering using E. coli strain BLT5615.
The brain selectivity of SRRVISRAKLAAAL (SEQ ID NO:9) phage following a systemic administration was studied in mice and rats by determining the titer of […] (SEQ ID NO:9) and control phage in multiple control tissues.

[1] = tested on: GBM and normal brain parenchyma; assay: Synthetic peptide homing in glioma-bearing mice (IHC); type: in vivo, mouse; conditions: synthetic peptide i.v., 1 h
Protocol: CVGTNCY (SEQ ID NO:2) peptide-phage or control phage were injected iv into mice, after one hour circulation animals were perfused with 20 ml PBS, organs were collected, weighed, and dropped to 1% NP40-LB solution. Organs were homogenized and titer of each tissue was determined. FAM-labeled peptides (2 mM of peptide in PBS) were injected intravenously and 3 hours later the animals were perfused with 20 mL of PBS. The organs were excised, snap-frozen in the vapor of liquid nitrogen, and stored at −80 °C. For confocal microscopy, the tissues were sectioned at 15 μm and stained with antibodies and DAPI.
Cryosections (15 μm) on Superfrost Plus slides were fixed in cold methanol, washed in PBS, treated with 3% hydrogen peroxide, and blocked in PBS containing 0.05% Tween-20, 5% BSA, and 5% goat serum (GE Healthcare, UK) for 1 h. The sections were immunostained with rabbit anti-fluorescein (cat #A889, Thermo Fisher Scientific, MA, USA) antibody overnight at +4 °C. […] Sections were imaged with Leica Aperio VERSA microscope slide scanner. Imaged were processed with Aperio Image Scope (v12.4.3.5008).
The synthetic CVGTNCY (SEQ ID NO:2) peptide or scrambled CVGTNCY (SEQ ID NO:2) homing in WT-GBM and VEGFko GBM-bearing mice was analyzed after i.v. injection and perfusion of the animals. Cryosections of glioma-bearing brains were stained with anti-FAM antibody and tyramide amplification kit to enhance the signal of the peptide.
To assess homing of CVG peptide in glioblastoma, CVGTNCY (SEQ ID NO:2) peptide-phage was injected iv into mice bearing either WT-GBM, VEGFko, U87MG or NCH421k GBM, and to mice without a tumor. At one hour time point mice were perfused, brains and control organs collected and titered. […] (FIGS. 17A-17B) Distribution of CVG peptide in GBM and brain parenchyma was also assessed. CVGTNCY (SEQ ID NO:2) peptide or its scrambled version (CVYTCNG; (SEQ ID NO: 68)) was injected iv into glioma bearing mice, after 1 hour circulation mice were perfused and tissues of interest snap-frozen in liquid nitrogen.

[2] = WT-GBM and VEGFko GBM-bearing mice

Substance | brain selectivity (titer in brain vs control tissues) (rat brain) | cell type targeted in normal brain [1] | detection in brain parenchyma [1, 2] | detection/targeting in GBM [1, 2] | detection in brain parenchyma ([1]; WT-GBM and VEGFko GBM-bearing mice, listed as CVG)
SRRVISRAKLAAAL [Cerepep, SRRVISRAKLAAAL] | highest accumulation in the brain and low accumulation in all other tested tissues | – | – | – | –
CVGTNCY | – | binding to the cortical neurons in the normal brain | detected in the brain parenchyma | activated microglia in GBM | homed to brain parenchyma and GBM
